According to US20190169240, “DNA-BINDING PROTEIN USING PPR MOTIF, AND USE THEREOF” (KYUSHU UNIVERSITY, NAT'L UNIVERSITY CORPORATION, published 2019):

T1: GUN1-VP64 (PPR motif region) (Arabidopsis thaliana, UniProt Q9SIC9 SEQ:234-621)
T1 chain: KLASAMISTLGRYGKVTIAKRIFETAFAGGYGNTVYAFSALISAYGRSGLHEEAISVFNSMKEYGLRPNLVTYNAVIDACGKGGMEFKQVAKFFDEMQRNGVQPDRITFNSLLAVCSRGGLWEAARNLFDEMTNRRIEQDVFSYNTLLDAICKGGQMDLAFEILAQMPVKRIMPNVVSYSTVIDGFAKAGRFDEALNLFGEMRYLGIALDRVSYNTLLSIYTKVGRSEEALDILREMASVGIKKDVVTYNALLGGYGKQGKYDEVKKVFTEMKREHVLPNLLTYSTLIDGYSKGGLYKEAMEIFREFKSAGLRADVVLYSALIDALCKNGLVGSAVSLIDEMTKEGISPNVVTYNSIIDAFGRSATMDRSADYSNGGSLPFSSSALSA

T2: pTac2-VP64 (PPR motif region) (Arabidopsis thaliana, UniProt Q9S7Q2 SEQ:106-632)
T2 chain: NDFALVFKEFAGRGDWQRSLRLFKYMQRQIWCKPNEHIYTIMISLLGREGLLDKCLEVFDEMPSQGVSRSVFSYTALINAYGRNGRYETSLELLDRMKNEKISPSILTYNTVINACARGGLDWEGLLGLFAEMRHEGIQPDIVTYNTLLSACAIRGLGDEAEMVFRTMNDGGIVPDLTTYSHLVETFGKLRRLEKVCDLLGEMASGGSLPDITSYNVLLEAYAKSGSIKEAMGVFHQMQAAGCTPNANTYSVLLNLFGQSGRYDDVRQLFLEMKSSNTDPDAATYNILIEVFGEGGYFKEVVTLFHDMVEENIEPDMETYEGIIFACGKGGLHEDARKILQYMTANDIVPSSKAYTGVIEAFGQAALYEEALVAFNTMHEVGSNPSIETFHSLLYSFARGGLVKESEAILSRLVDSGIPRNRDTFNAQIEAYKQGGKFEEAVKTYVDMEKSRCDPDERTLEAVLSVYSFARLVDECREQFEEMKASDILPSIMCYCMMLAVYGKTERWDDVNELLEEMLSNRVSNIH


Key:
Details in all cases: tags: N-terminal Flag and nuclear localization signal, C-terminal VP64
[1] = target: T1, GUN1-VP64 (PPR motif region); experiment: cell_activity; 4x target reporter; HEK293T, Fluc/Rluc vs pminCMV-luc2
Method: (§1) A reporter vector (pminCMV-luc2, SEQ ID NO: 10) was prepared, in which the firefly luciferase gene was ligated downstream from the Minimal CMV promoter, and a multi-cloning site was placed upstream of the promoter. The predicted target sequence of each PPR was inserted into the vector at the multi-cloning site. The target sequence of each PPR ([…] for p63, […] for pTac2, and […] for GUN1, SEQ ID NOS: 11 to 13 in Sequence Listing) was determined by predicting the motif-DNA recognition codes of DNA-binding type PPR from the motif-RNA recognition codes observed in the RNA-binding type PPR. For each PPR, sequences containing 4 or 8 of target sequences were prepared, and used in the following assay. The nucleotide sequences of the vectors are shown as SEQ ID NOS: 14 to 19 in Sequence Listing. […]
(§2) The luciferase activity was compared for the cases of introducing pTac2-VP64 or GUN1-VP64 together with pminCMV-luc2 for a negative control, or the reporter vector having 4 or 8 target sequences (table mentioned below, FIG. 6). The comparison of the activity was performed on the basis of standardized scores obtained by dividing the measured values obtained with Fluc (firefly luciferase) with the measured value obtained with Rluc (Renilla luciferase) as the reference (Fluc/Rluc).

[2] = target: T1, GUN1-VP64 (PPR motif region); experiment: cell_activity; 8x target reporter; HEK293T, Fluc/Rluc vs pminCMV-luc2
Method: as §1, §2

[3] = target: T2, pTac2-VP64 (PPR motif region); experiment: as above
Method: as §1, §2

Binder	activity [1] [fold activation]	activity [2] [fold activation]	activity [3] [fold activation]
GUN1 predicted target (dsDNA) DNA 1: AATTTGTCGAT DNA 2: ATCGACAAATT	2.88	3.15	–
pTac2 predicted target (dsDNA) DNA 1: AACTTTCGTCACTCA DNA 2: TGAGTGACGAAAGTT	–	–	4.89
